Article PMC7459404, “Structural insights into the enhanced carbapenemase efficiency of OXA‐655 compared to OXA‐10” (FEBS Open Bio, 2020)

Target: the molecule itself
Assay: crystal structure; OXA-10 crystals (hanging drop, 4 °C, 20–23% PEG 3350, 0.2 M magnesium formate) soaked about 2 min with IPM; 1.89 Å, P212121, two chains in the asymmetric unit; dimer interface analysed with PISA

B1: OXA-10 class D β-lactamase (enzyme)
chain: GSITENTSWNKEFSAEAVNGVFVLCKSSSKSCATNDLARASKEYLPASTFKIPNAIIGLETGVIKNEHQVFKWDGKPRAMKQWERDLTLRGAIQVSAVPVFQQIAREVGEVRMQKYLKKFSYGNQNISGGIDKFWLEGQLRISAVNQVEFLESLYLNKLSASKENQLIVKEALVTEAAPEYLVHSKTGFSGVGTESNPGVAWWVGWVEKETEVYFFAFNMDIDNESKLPLRKSIPTKIMESEGIIGG
modifications: carboxylated lysine 70 (KCX70); S67 OG covalently bound to the ring-opened carbapenem (IPM or ETP, acyl-enzyme)
notes: Crystals were soaked with imipenem (6SKP) or ertapenem (6SKR); two chains (A, B) in the asymmetric unit; also called OXA-10_IPM; OXA-10_ETP
Q: Does B1 bind?
A: Result: binds
